Measurements reported in US20250381307A1, “RETRO-AAV AND USE IN TREATING NEURODEGENERATIVE DISEASES” (priority 2023, published 2025).

B1: AAV8R: AAV8 capsid with N385D, insertion of SEQ ID NO: 31 at position 588 and TS to IN mutation (SEQ ID NO: 1) (protein)
chain: MAADGYLPDWLEDNLSEGIREWWALKPGAPKPKANQQKQDDGRGLVLPGYKYLGPFNGLDKGEPVNAADAAALEHDKAYDQQLQAGDNPYLRYNHADAEFQERLQEDTSFGGNLGRAVFQAKKRVLEPLGLVEEGAKTAPGKKRPVEPSPQRSPDSSTGIGKKGQQPARKRLNFGQTGDSESVPDPQPLGEPPAAPSGVGPNTMAAGGGAPMADNNEGADGVGSSSGNWHCDSTWLGDRVITTSTRTWALPTYNNHLYKQISNGTSGGATNDNTYFGYSTPWGYFDFNRFHCHFSPRDWQRLINNNWGFRPKRLSFKLFNIQVKEVTQNEGTKTIANNLTSTIQVFTDSEYQLPYVLGSAHQGCLPPFPADVFMIPQYGYLTLNDGSQAVGRSSFYCLEYFPSQMLRTGNNFQFTYTFEDVPFHSSYAHSQSLDRLMNPLIDQYLYYLSRTQTTGGTANTQTLGFSQGGPNTMANQAKNWLPGPCYRQQRVSTTTGQNNNSNFAWTAGTKYHLNGRNSLANPGIAMATHKDDEERFFPSNGILIFGKQNAARDNADYSDVMLTSEEEIKTTNPVATEEYGIVADNLQRGNLADQDYTKTARQAATADVNSQGALPGMVWQNRDVYLQGPIWAKIPHTDGNFHPSPLMGGFGLKHPPPQILIKNTPVPADPPTTFNQSKLNSFITQYSTGQVSVEIEWELQKENSKRWNPEIQYTSNYYKSINVDFAVNTEGVYSEPRPIGTRYLTRNL
B2: G88P7: 896-bp shortened derivative of G88P2 promoter (SEQ ID NO: 46) (nucleic acid, listed as Homo sapiens)
DNA: ATGCCAAGCGTGGAAAGGCTGTCTTTTCCCTGGATGATGTATAACTAAGCAGGAGAGAGCTTCGAGTGGGTTCACCACATCAGCCACCACTCCTGCTTCTGAGCACAGGGTGCTCTCCTCTTGAGCTCAGCTTCTGCTTTTGCAGCCAAGCATTCTTGCTGCTGCTGCCTGCCTGCCCACCCGCCTGGGCTTGCAGCCCGCCACTTTACTTTCTCCAGCCCTGATACCAGCTGAGAAGTCTCCCTGCAGCTGCTAGTTCCTGCCCAGGACCATGTGTGTGGATGCTGCTTGGGAGAAGCGGGCACTTGCTCCTGGCACTGATCCCAGCTGAGTTTCTCCTGTTGATTTCTGGACCACTGATGCTGTTGCTGAGGAGGTATTTCCCGGCATCCCTCCCCCTGAGACACCGGCTAAGGACCAGCCTAAACGCAAGGTAACCTTCACCTCTTTCCCATGGGATTTTCCCCAGCTGGGATATCTCTGCTTTCTCCTGGAACTAGGTCCTCCAGCTGGCAACATATCTCTCTCTCTCTCTCTCTCTCTCTCTCTCTCTCTCTCTCTGTGTGTGTGTGTGTGTGTTGGGGGAGAAGAGGAGACTGTTTTAGGTATTGCTCTGTCCTAGGGCTTCCCCGATACCTGCTGAATCCAATGCAAAGTGGCCTTTCCCCTGGCTCTGGAGACATTTCCGAGGCAGGCACCTGTCATCTGCCACCCCCGTCCTCCTCCTCGAGCTCCCTTTCTCCCCCTCCCCCAGCCCATTATTCTGCTTCAGCCTTTTGTGTCAGTGGCAGAGGGCTGAAGGGATGTCTTTGCCCTTCTGGCAGGCAGGACAGTGTCAGGATGGACCGCGCTGCCAGAAGCCGACGCTAGCGAGGGAGGTGTGAAGAGTTGGCCAG
B3: AAV8R12: AAV8R capsid mutant V183E + N411S (SEQ ID NO: 13; SEQ ID NO: 59) (protein)
chain: MAADGYLPDWLEDNLSEGIREWWALKPGAPKPKANQQKQDDGRGLVLPGYKYLGPFNGLDKGEPVNAADAAALEHDKAYDQQLQAGDNPYLRYNHADAEFQERLQEDTSFGGNLGRAVFQAKKRVLEPLGLVEEGAKTAPGKKRPVEPSPQRSPDSSTGIGKKGQQPARKRLNFGQTGDSESEPDPQPLGEPPAAPSGVGPNTMAAGGGAPMADNNEGADGVGSSSGNWHCDSTWLGDRVITTSTRTWALPTYNNHLYKQISNGTSGGATNDNTYFGYSTPWGYFDFNRFHCHFSPRDWQRLINNNWGFRPKRLSFKLFNIQVKEVTQNEGTKTIANNLTSTIQVFTDSEYQLPYVLGSAHQGCLPPFPADVFMIPQYGYLTLNDGSQAVGRSSFYCLEYFPSQMLRTGNSFQFTYTFEDVPFHSSYAHSQSLDRLMNPLIDQYLYYLSRTQTTGGTANTQTLGFSQGGPNTMANQAKNWLPGPCYRQQRVSTTTGQNNNSNFAWTAGTKYHLNGRNSLANPGIAMATHKDDEERFFPSNGILIFGKQNAARDNADYSDVMLTSEEEIKTTNPVATEEYGIVADNLQRGNLADQDYTKTARQAATADVNSQGALPGMVWQNRDVYLQGPIWAKIPHTDGNFHPSPLMGGFGLKHPPPQILIKNTPVPADPPTTFNQSKLNSFITQYSTGQVSVEIEWELQKENSKRWNPEIQYTSNYYKSINVDFAVNTEGVYSEPRPIGTRYLTRN

Experiments:
[1] = system: striatonigral projection neurons (striatal MSNs); assay: Retrograde labeling of striatal MSNs after AAV injection into the SNr (EYFP+ cell counting); assay type: in vivo, mice; settings: for labeled striatonigral projection neurons (FIG. 2C): wild type mice, n=3, mean±SEM
From the text: (§1) Brain profiles of two epigenetic marks for enhancers and promoters, monomethylation of histone H3 lysine 4 (H3K4me1) and acetylation of histone H3 lysine 27 (H3K27ac) were checked and approximately 2 kilobase-long sequences around the transcriptional start site (TSS) that have high levels of H3K4me1 and/or H3K27ac were identified in mouse brain. Homologous sequences at equivalent positions of the human genome were then cloned onto an AAV backbone, and the activity of the homologous sequences in directing reporter expression was tested in mice after injections of AAVs into the SNr (FIG. 3A-C, TABLE 3).
(§2) Mice were anesthetized with sodium pentobarbital (Nembutal; 80 mg/kg, i.p.), and then placed into a stereotaxic device (KOPF). Eye cream was applied on both corneas to avoid dehydration. The skull above the targeted areas was thinned with a dental drill and carefully removed. Injections were conducted with a 10 μL syringe connected to a 33-Gauge needle (Neuros; Hamilton), using a microsyringe pump (Legato 130, KD Scientific). A total volume of 200 nL virus was injected into the SNr at a speed of 20 nL/min. The coordinates for the SNr were 3.4 mm posterior, 1.3 mm lateral, 4.8 mm ventral to the bregma.
(§3) Images were acquired using a confocal microscope (Carl Zeiss, LSM880) and an Axiolmager.Z1 microscope with apotome (Carl Zeiss). Brain structures were identified microscopically and in digital photos using a mouse brain atlas. To analyze the number of EYFP+ cells in the striatum, slices from rostral to caudal striatum were used. Every sixth section was analyzed, and numbers of EYFP+ cells were multiplied by six to acquire the approximate total number and mean number of cells per animal. Images were processed using ImageJ (NIH, USA), and final quantifications were independently performed manually by two blinded experimenters.

[2] = system: MSNs in nucleus accumbens; assay: Retrograde labeling of accumbal MSNs after delivery into ventral pallidum or lateral hypothalamus; assay type: in vivo, mouse; settings: stereotaxic delivery into ventral pallidum or lateral hypothalamus
substantia nigra = assay: Promoter activity level in substantia nigra after AAV injection into the SNr; assay type: in vivo, mice; settings: numbers of YFP-expressing neurons per animal
From the text: as §1, §2, §3

Row | Molecule | labeled striatonigral projection neurons (FIG. 2C) ([1]; SNr injection) | labeling of MSNs in nucleus accumbens [2] | reporter-labeled MSNs by promoter (FIG. 4B) ([1]; SNr injection, n=3 mice, mean±SEM) | Activity Level STR ([1]; striatum, numbers of YFP-expressing neurons per animal) | labeled MSNs per mouse ([1]; viruses expressing EYFP, injection into the SNr (FIG. 4B)) | Activity Level SN (substantia nigra) | Labeling Efficiency in Striatonigral Pathway ([1]; AAV8R capsid mutants, numbers of labeled neurons per animal) | times EYFP positive / labeled MSNs compared to rAAV2-retro ([1]; after nigral delivery, hSyn-EYFP)
1 | B1 | 10092±463.9 | robust labeling |  |  |  |  |  | 
2 | B2 |  |  | 39460±7281 | ++++ (>25k) | 3.95±0.73 ×104 MSNs per mouse | + (<5k) |  | 
3 | B3 | 16026±1654 | robust labeling |  |  |  |  | +++ (10k-25k) | 7.72±0.78 times
